Assay in all cases: SEC; analytical SEC of the purified protein alone; oligomeric state in solution
For orientation: Size exclusion chromatography separates by hydrodynamic size, large species first.

In assay [1] the target is WsmS (Streptomyces sp. CB02120-2).
Assay [2] has as its target WsmD (Streptomyces sp. CB02120-2).
Assay [3] addresses WsmR KS6 (Streptomyces sp. CB02120-2).
The next assay concerns the target LnmF.
For assay [4], the target named is WsmE (Streptomyces sp. CB02120-2).

In general, stoichiometry N refers to a count of units in the complex or per binding partner.

In the case of WsmS (enzyme), the stoichiometry N in assay [1] stood at 2.

WsmD (enzyme) registered a stoichiometry N in assay [2] of 2.

As to WsmR KS6 (domain or fragment), in assay [3], the stoichiometry N came out at 2. As for LnmF (enzyme), the stoichiometry N with LnmF worked out at 3. Turning to WsmE (enzyme), the stoichiometry N in assay [4] is 3.

Values taken from article PMC7618002.
